Source: patent US20190367961A1, “MOGROL GLYCOSYLTRANSFERASE AND GENE ENCODING SAME” (SUNTORY HOLDINGS LIMITED, priority 2014, published 2019)

Assay: glucose transfer (glycosylation) activity for mogrol, product analysed by LC-IT-TOF-MS
Assay type: biochemical
Details: same enzyme conditions (0.2 mM mogrol, 2 mM UDP-glucose, 30° C., 3 hours)
Procedure: Purification was carried out using the HisTag of the recombinant protein according to an ordinary method, and glucose transfer activity for mogrol prepared by hydrolyzing a Siraitia grosvenorii extract (Takemoto, T. et al. (1983) YAKUGAKU ZASSHI 103(11), 1167-1173) was evaluated. The enzyme reaction composition was 0.2 mM mogrol as a glucose acceptor, 2 mM UDP-glucose as a glucose donor, and 50 mM calcium phosphate buffer (pH 7.5); an enzyme solution was added thereto, which was then reacted at 30° C. for 3 hours; and the product was analyzed using LC-IT-TOF-MS (Shimadzu Corporation).
Stevia-derived UGT85C2 and UGT73E1 were expressed in the same manner as in the above method. The product amount was measured under the above enzyme conditions to determine relative activity by dividing it by the expressed protein amount. As a result, the relative activities of stevia-derived UGT85C2 and UGT73E1 when the activity of SgUGT74-943 was set to 1 were 0.35 and 0.22, respectively. The glycosylation activity of Siraitia grosvenorii-derived SgUGT74-943 was confirmed to be nearly 3 times higher than those of stevia-derived UGT85C2 and UGT73E1 (FIG. 4).

| Molecule | relative activity (product amount divided by expressed protein amount) when the activity of SgUGT74-943 was set to 1 |
| --- | --- |
| UGT73E1: steviol glycosyltransferase derived from stevia, known to glycosylate mogrol (protein, UniProt Q6VAA9 1-495, looked up) UDP-glycosyltransferase 73E1: MSPKMVAPPTNLHFVLFPLMAQGHLVPMVDIARILAQRGATVTIITTPYHANRVRPVISRAIATNLKIQLLELQLRSTEAGLPEGCESFDQLPSFEYWKNISTAIDLLQQPAEDLLRELSPPPDCIISDFLFPWTTDVARRLNIPRLVFNGPGCFYLLCIHVAITSNILGENEPVSSNTERVVLPGLPDRIEVTKLQIVGSSRPANVDEMGSWLRAVEAEKASFGIVVNTFEELEPEYVEEYKTVKDKKMWCIGPVSLCNKTGPDLAERGNKAAITEHNCLKWLDERKLGSVLYVCLGSLARISAAQAIELGLGLESINRPFIWCVRNETDELKTWFLDGFEERVRDRGLIVHGWAPQVLILSHPTIGGFLTHCGWNSTIESITAGVPMITWPFFADQFLNEAFIVEVLKIGVRIGVERACLFGEEDKVGVLVKKEDVKKAVECLMDEDEDGDQRRKRVIELAKMAKIAMAEGGSSYENVSSLIRDVTETVRAPH | 0.22 |
| UGT85C2: steviol glycosyltransferase derived from stevia, known to glycosylate mogrol (protein, UniProt Q6VAB0 1-481, looked up) UDP-glycosyltransferase 85C2: MDAMATTEKKPHVIFIPFPAQSHIKAMLKLAQLLHHKGLQITFVNTDFIHNQFLESSGPHCLDGAPGFRFETIPDGVSHSPEASIPIRESLLRSIETNFLDRFIDLVTKLPDPPTCIISDGFLSVFTIDAAKKLGIPVMMYWTLAACGFMGFYHIHSLIEKGFAPLKDASYLTNGYLDTVIDWVPGMEGIRLKDFPLDWSTDLNDKVLMFTTEAPQRSHKVSHHIFHTFDELEPSIIKTLSLRYNHIYTIGPLQLLLDQIPEEKKQTGITSLHGYSLVKEEPECFQWLQSKEPNSVVYVNFGSTTVMSLEDMTEFGWGLANSNHYFLWIIRSNLVIGENAVLPPELEEHIKKRGFIASWCSQEKVLKHPSVGGFLTHCGWGSTIESLSAGVPMICWPYSWDQLTNCRYICKEWEVGLEMGTKVKRDEVKRLVQELMGEGGHKMRNKAKDWKEKARIAIAPNGSSSLNIDKMVKEITVLARN | 0.35 |
